# B1: BBSome complex member BBS2 (Homo sapiens), Q9BXC9 (parent)
# chain: MLLPVFTLKLRHKISPRMVAIGRYDGTHPCLAAATQTGKVFIHNPHTRNQHVSASRVFQSPLESDVSLLSINQAVSCLTAGVLNPELGYDALLVGTQTNLLAYDVYNNSDLFYREVADGANAIVLGTLGDISSPLAIIGGNCALQGFNHEGSDLFWTVTGDNVNSLALCDFDGDGKKELLVGSEDFDIRVFKEDEIVAEMTETEIVTSLCPMYGSRFGYALSNGTVGVYDKTSRYWRIKSKNHAMSIHAFDLNSDGVNELITGWSNGKVDARSDRTGEVIFKDNFSSAIAGVVEGDYRMDGHIQLICCSVDGEIRGYLPGTAEMRGNLMDTSAEQDLIRELSQKKQNLLLELRNYEENAKAELASPLNEADGHRGIIPANTRLHTTLSVSLGNETQTAHTELRISTSNDTIIRAVLIFAEGIFTGESHVVHPSIHNLSSSICIPIVPPKDVPVDLHLKAFVGYRSSTQFHVFESTRQLPRFSMYALTSLDPASEPISYVNFTIAERAQRVVVWLGQNFLLPEDTHIQNAPFQVCFTSLRNGGHLHIKIKLSGEITINTDDIDLAGDIIQSMASFFAIEDLQVEADFPVYFEELRKVLVKVDEYHSVHQKLSADMADHSNLIRSLLVGAEDARLMRDMKTMKSRYMELYDLNRDLLNGYKIRCNNHTELLGNLKAVNQAIQRAGRLRVGKPKNQVITACRDAIRSNNINTLFKIMRVGTASS
# partner: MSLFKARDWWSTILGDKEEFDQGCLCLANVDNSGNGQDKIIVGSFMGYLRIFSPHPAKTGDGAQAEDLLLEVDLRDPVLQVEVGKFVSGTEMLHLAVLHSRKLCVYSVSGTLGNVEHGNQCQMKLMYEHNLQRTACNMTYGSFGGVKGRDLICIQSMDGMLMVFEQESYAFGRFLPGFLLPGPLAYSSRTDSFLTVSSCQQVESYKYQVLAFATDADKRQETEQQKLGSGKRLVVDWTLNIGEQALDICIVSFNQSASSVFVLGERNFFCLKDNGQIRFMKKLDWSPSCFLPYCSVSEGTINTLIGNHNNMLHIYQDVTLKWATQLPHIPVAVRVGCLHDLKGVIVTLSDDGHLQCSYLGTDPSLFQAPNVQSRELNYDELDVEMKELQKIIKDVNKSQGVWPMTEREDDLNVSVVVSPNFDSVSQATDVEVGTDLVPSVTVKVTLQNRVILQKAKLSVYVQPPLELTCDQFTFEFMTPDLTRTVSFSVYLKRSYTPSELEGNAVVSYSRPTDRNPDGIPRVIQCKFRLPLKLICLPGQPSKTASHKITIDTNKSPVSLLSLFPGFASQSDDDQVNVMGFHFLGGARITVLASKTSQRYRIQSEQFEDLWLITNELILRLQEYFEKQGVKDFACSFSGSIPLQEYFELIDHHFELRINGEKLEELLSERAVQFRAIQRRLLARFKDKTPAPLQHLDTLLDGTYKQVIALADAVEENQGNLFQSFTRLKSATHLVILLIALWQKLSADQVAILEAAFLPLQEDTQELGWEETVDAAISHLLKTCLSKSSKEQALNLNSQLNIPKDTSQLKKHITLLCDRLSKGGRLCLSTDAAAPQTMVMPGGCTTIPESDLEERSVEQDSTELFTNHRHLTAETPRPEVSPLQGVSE
# Variants of: B1
# Details: with pthb1_human BBS9, Q3SYG4
row,effect of a mutation on the interaction,Variant
1,with no effect,T386A
2,with no effect,T386E
3,with no effect,T386K
4,with no effect,H384E
5,with no effect,H384K
6,with no effect,H384A
7,with no effect,T385K
8,with no effect,T385E
9,disrupting interaction strength,T385A
10,with no effect,A379K
11,with no effect,A379E
12,with no effect,D371K
13,with no effect,D371A
14,with no effect,D371E
15,disrupting interaction strength,D371V
16,with no effect,P366A
17,with no effect,P366K
18,with no effect,P366E
19,disrupting interaction strength,I376V
20,with no effect,I376K
21,with no effect,I376E
22,with no effect,I376A
23,disrupting interaction strength,I377T
24,with no effect,I377K
25,with no effect,I377E

row,effect of a mutation on the interaction,Variant
1,with no effect,I377A
2,disrupting interaction strength,I377R
3,with no effect,L383E
4,with no effect,L383A
5,with no effect,L383K
6,with no effect,H373K
7,with no effect,H373E
8,with no effect,H373A
9,with no effect,L387A
10,disrupting interaction strength,L387K
11,with no effect,L387E
12,with no effect,A364K
13,with no effect,R374A
14,with no effect,R374K
15,disrupting interaction strength,R374W
16,with no effect,R374E
17,disrupting interaction strength,N380A
18,disrupting interaction strength,N380E
19,with no effect,N380K
20,disrupting interaction strength,R382E
21,disrupting interaction strength,R382A
22,with no effect,R382K
23,with no effect,S365E
24,with no effect,S365K
25,disrupting interaction strength,S365C

row,effect of a mutation on the interaction,Variant
1,with no effect,S365A
2,with no effect,L367K
3,with no effect,L367A
4,with no effect,L367E
5,with no effect,A370E
6,with no effect,A370K
7,with no effect,E369A
8,with no effect,E369K
9,disrupting interaction strength,G375E
10,with no effect,G375K
11,with no effect,G375A
12,with no effect,N368E
13,with no effect,N368K
14,with no effect,N368A
15,with no effect,G372K
16,with no effect,G372A
17,with no effect,G372E
18,with no effect,T381E
19,with no effect,T381A
20,with no effect,T381K
21,with no effect,P378A
22,with no effect,P378K
23,with no effect,P378E

# Continued, variant first:
row,Variant,effect of a mutation on the interaction
1,E356K,with no effect
2,E356P,disrupting interaction strength
3,E356L,disrupting interaction strength
4,E356A,with no effect
5,E356S,disrupting interaction strength
6,K345E,with no effect
7,K345A,with no effect
8,E362Y,disrupting interaction strength
9,E362A,with no effect
10,E362K,with no effect
11,L337K,with no effect
12,L337E,with no effect
13,L337A,with no effect
14,M329A,with no effect
15,M329K,with no effect
16,M329E,with no effect
17,Q346E,with no effect
18,Q346K,with no effect
19,Q346A,with no effect
20,L363K,with no effect
21,L363E,with no effect
22,L363A,with no effect

row,Variant,effect of a mutation on the interaction
1,E340K,with no effect
2,E340A,with no effect
3,E334K,with no effect
4,E334A,with no effect
5,K360E,with no effect
6,K360A,with no effect
7,S332K,with no effect
8,S332E,with no effect
9,S332A,with no effect
10,R353A,with no effect
11,R353K,with no effect
12,R353E,with no effect
13,L352A,with no effect
14,L352E,with no effect
15,L352K,with no effect
16,Q335K,with no effect
17,Q335E,with no effect
18,Q335A,with no effect
19,L341K,with no effect
20,L341A,with no effect
21,L341E,with no effect
22,S342A,with no effect

row,Variant,effect of a mutation on the interaction
1,S342E,with no effect
2,S342K,with no effect
3,L348E,with no effect
4,L348A,with no effect
5,L348K,with no effect
6,N347A,with no effect
7,N347E,with no effect
8,N347K,with no effect
9,D330K,with no effect
10,D330A,with no effect
11,D330E,with no effect
12,D336E,with no effect
13,D336A,with no effect
14,D336K,with no effect
15,L349A,with no effect
16,L349K,with no effect
17,L349E,with no effect
18,R339K,with no effect
19,R339A,with no effect
20,R339E,with no effect
21,A333E,with no effect
22,A333K,with no effect

row,Variant,effect of a mutation on the interaction
1,E351A,with no effect
2,E351K,with no effect
3,K344A,with no effect
4,K344E,with no effect
5,A364E,with no effect
6,L350K,with no effect
7,L350E,with no effect
8,L350A,with no effect
9,N358E,with no effect
10,N358K,with no effect
11,N358A,with no effect
12,Y355E,with no effect
13,Y355K,with no effect
14,Y355A,with no effect
15,L328A,with no effect
16,L328K,with no effect
17,L328E,with no effect
18,A361K,with no effect
19,A361E,with no effect
20,I338K,with no effect
21,I338A,with no effect
22,I338E,with no effect

row,Variant,effect of a mutation on the interaction
1,A359K,with no effect
2,A359E,with no effect
3,N327A,with no effect
4,N327K,with no effect
5,N327E,with no effect
6,E357A,with no effect
7,E357K,with no effect
8,N354K,with no effect
9,N354A,with no effect
10,N354E,with no effect
11,T331E,with no effect
12,T331K,with no effect
13,T331A,with no effect
14,Q343K,with no effect
15,Q343E,with no effect
16,Q343A,with no effect
17,G326K,with no effect
18,G326E,with no effect

# — IntAct's records for PubMed 29039417
